Our source for the Kd and stoichiometry N (Fab per spike trimer) values is article PMC9152305.

pKd: −log10 of the molar value.

The target in assay [1] is SARS-CoV-2 Omicron BA.2 spike extracellular domain trimer (SARS-CoV-2 Omicron BA.2) (UniProt P0DTC2). In words: BLI. For orientation: Biolayer interferometry detects binding as a change in optical thickness at a sensor tip.
For assay [2] the target is unchanged. In words: cryo-EM structure.

Broadly, the pKd is the Kd on a negative log10 scale, so that one unit is a factor of ten. Read a high pKd as a small Kd.

As to JMB2002 Fab, in assay [1], the pKd is 8.59. Further, in assay [2], the stoichiometry N (Fab per spike trimer) was determined as 3.
JMB2002 IgG (antibody) gave a pKd in assay [1] of 9.52.
